According to patent US10450368:

Columns and labels:
Centromere B [1] = biological target: Centromere B (UniProt P07199); experiment: AtheNA, Ab 12.5 ug/ml
Jo-1 [2] = biological target: Jo-1 (UniProt P12081); experiment: AtheNA, Ab 12.5 ug/ml
Sm (Smith antigen) [3] = experiment: AtheNA, Ab 12.5 ug/ml
Scl-70 [4] = biological target: Scl-70 (UniProt P11387); experiment: AtheNA, Ab 12.5 ug/ml
SSA [5] = experiment: AtheNA, Ab 12.5 ug/ml
Histones [6] = experiment: AtheNA, Ab 12.5 ug/ml
SSB [7] = biological target: SSB (UniProt P05455); experiment: AtheNA, Ab 12.5 ug/ml
SSB, sequence (P05455 whole entry): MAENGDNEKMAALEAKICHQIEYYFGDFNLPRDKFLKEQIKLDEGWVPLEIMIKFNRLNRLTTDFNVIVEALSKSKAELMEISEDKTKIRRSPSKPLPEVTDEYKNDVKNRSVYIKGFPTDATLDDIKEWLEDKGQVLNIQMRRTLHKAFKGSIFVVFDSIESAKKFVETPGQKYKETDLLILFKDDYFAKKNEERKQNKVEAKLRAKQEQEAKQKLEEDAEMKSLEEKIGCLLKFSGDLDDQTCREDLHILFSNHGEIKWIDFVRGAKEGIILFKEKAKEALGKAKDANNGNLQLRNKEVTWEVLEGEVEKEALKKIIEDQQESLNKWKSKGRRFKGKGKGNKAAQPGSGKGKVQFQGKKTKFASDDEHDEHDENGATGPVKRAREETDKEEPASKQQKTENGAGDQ

RNP (ribonucleoprotein) [8] = experiment: AtheNA, Ab 12.5 ug/ml
Centromere B [9] = biological target: Centromere B (UniProt P07199); experiment: AtheNA, Ab 25 ug/ml
Jo-1 [10] = biological target: Jo-1 (UniProt P12081); experiment: AtheNA, Ab 25 ug/ml
Sm (Smith antigen) [11] = experiment: AtheNA, Ab 25 ug/ml
Scl-70 [12] = biological target: Scl-70 (UniProt P11387); experiment: AtheNA, Ab 25 ug/ml
SSA [13] = experiment: AtheNA, Ab 25 ug/ml
Histones [14] = experiment: AtheNA, Ab 25 ug/ml
SSB [15] = biological target: SSB (UniProt P05455); experiment: AtheNA, Ab 25 ug/ml
RNP (ribonucleoprotein) [16] = experiment: AtheNA, Ab 25 ug/ml
Centromere B [17] = biological target: Centromere B (UniProt P07199); experiment: AtheNA, Ab 6.25 ug/ml
Jo-1 [18] = biological target: Jo-1 (UniProt P12081); experiment: AtheNA, Ab 6.25 ug/ml
Sm (Smith antigen) [19] = experiment: AtheNA, Ab 6.25 ug/ml
Scl-70 [20] = biological target: Scl-70 (UniProt P11387); experiment: AtheNA, Ab 6.25 ug/ml
SSA [21] = experiment: AtheNA, Ab 6.25 ug/ml
Histones [22] = experiment: AtheNA, Ab 6.25 ug/ml
SSB [23] = biological target: SSB (UniProt P05455); experiment: AtheNA, Ab 6.25 ug/ml
RNP (ribonucleoprotein) [24] = experiment: AtheNA, Ab 6.25 ug/ml
CH505.M21D8gp120/293F = experiment: ELISA
CH505w020.14D8gp120 = experiment: ELISA
CH505.M7D8gp120/293F = experiment: ELISA
[25] = biological target: CH505.TF mutant gp120 M6 (HIV-1); experiment: ELISA
CH505.M5D8gp120293F = experiment: ELISA
CH505.M10D8gp120 = experiment: ELISA
CH505.w30.12D8gp120 = experiment: ELISA
CH505.M9D8gp120/293F = experiment: ELISA
CH505.M11D8gp120/293F = experiment: ELISA
[26] = biological target: CH505.TF mutant gp120 M8 (HIV-1); experiment: ELISA
CH505w136.B18D8gp120 = experiment: ELISA
CH0505_CON D7gp120/293i = experiment: ELISA
CH505.M19D8gp120 = experiment: ELISA
CH505w030.20D8gp120/293F = experiment: ELISA
[27] = biological target: CH505.TF mutant gp120 M20 (HIV-1); experiment: ELISA
[28] = biological target: HIV-1 CH505 transmitted/founder gp120 Env (HIV-1); experiment: SPR, antibody captured on anti-human Ig Fc, gp120 injected

Centromere B, sequence (P07199 whole entry): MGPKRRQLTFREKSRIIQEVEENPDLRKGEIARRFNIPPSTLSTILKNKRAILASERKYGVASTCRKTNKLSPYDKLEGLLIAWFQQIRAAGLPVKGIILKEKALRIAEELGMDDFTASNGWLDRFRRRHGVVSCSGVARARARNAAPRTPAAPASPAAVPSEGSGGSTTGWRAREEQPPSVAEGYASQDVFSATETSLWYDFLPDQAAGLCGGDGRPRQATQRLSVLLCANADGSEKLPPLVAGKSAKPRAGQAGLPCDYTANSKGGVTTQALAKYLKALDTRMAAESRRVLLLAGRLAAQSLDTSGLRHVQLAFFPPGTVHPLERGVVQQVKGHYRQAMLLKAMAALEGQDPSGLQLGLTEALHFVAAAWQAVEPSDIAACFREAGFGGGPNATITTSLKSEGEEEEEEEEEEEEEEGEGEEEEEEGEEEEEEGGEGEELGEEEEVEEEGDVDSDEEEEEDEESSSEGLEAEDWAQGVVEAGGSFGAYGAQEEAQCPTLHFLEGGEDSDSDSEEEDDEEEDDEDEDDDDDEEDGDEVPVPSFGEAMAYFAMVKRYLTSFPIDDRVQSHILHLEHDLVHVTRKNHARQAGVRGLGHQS
Scl-70, sequence (P11387 whole entry): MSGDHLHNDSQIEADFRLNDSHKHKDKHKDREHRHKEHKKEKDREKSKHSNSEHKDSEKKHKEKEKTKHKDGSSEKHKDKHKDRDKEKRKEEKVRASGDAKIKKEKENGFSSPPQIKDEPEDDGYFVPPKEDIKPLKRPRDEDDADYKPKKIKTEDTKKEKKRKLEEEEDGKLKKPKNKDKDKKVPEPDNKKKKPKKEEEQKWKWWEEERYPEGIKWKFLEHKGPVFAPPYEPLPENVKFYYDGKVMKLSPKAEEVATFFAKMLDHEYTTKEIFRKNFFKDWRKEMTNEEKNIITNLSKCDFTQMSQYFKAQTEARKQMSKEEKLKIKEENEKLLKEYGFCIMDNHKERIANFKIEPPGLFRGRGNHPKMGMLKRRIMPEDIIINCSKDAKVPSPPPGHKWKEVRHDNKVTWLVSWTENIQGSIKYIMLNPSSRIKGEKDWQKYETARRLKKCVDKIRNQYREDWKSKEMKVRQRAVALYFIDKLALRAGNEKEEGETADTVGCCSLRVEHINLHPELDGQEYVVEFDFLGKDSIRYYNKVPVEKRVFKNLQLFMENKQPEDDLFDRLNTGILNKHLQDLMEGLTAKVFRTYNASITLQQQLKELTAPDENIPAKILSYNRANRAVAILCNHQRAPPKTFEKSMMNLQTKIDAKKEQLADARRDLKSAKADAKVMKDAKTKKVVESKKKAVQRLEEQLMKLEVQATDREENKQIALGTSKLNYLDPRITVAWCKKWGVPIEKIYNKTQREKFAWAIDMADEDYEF
Jo-1, sequence (P12081 whole entry): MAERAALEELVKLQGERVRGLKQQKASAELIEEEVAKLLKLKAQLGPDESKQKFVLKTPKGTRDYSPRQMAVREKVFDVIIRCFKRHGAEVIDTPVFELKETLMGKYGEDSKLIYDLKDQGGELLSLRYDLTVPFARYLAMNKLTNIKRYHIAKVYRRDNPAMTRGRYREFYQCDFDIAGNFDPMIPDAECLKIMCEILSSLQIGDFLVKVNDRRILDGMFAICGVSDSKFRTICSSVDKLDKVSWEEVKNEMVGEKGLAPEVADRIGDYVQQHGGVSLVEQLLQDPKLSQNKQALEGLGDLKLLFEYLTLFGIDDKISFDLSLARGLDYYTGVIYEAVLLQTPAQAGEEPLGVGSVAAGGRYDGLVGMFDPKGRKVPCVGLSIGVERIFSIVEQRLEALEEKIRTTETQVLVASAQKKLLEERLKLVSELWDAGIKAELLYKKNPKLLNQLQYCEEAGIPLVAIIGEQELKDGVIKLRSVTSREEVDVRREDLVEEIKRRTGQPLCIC

**Q.** CH235 IA4 (antibody) was tested. Which AtheNA signal (relative luminescence units) (Centromere B [1]) did it give?
**A.** The AtheNA signal (relative luminescence units) was 5.

**Q.** What about the AtheNA signal (relative luminescence units) (Jo-1 [2]) of the same substance?
**A.** The AtheNA signal (relative luminescence units) was 3.

**Q.** What about the AtheNA signal (relative luminescence units) (Sm (Smith antigen) [3]) of the same substance?
**A.** Its AtheNA signal (relative luminescence units) is 6.

**Q.** What about the AtheNA signal (relative luminescence units) (Scl-70 [4]) of the same substance?
**A.** The AtheNA signal (relative luminescence units) was 2.

**Q.** And the AtheNA signal (relative luminescence units) (SSA [5])?
**A.** Its AtheNA signal (relative luminescence units) is 11.

**Q.** And the AtheNA signal (relative luminescence units) (Histones [6])?
**A.** Its AtheNA signal (relative luminescence units) is 6.

**Q.** And the AtheNA signal (relative luminescence units) (SSB [7])?
**A.** Its AtheNA signal (relative luminescence units) is 3.

**Q.** What about the AtheNA signal (relative luminescence units) (RNP (ribonucleoprotein) [8]) of the same substance?
**A.** Its AtheNA signal (relative luminescence units) is 4.

**Q.** And the AtheNA signal (relative luminescence units) (Centromere B [9])?
**A.** Its AtheNA signal (relative luminescence units) is 10.

**Q.** And the AtheNA signal (relative luminescence units) (Jo-1 [10])?
**A.** The AtheNA signal (relative luminescence units) was 2.

**Q.** What about the AtheNA signal (relative luminescence units) (Sm (Smith antigen) [11]) of the same substance?
**A.** Its AtheNA signal (relative luminescence units) is 12.

**Q.** What about the AtheNA signal (relative luminescence units) (Scl-70 [12]) of the same substance?
**A.** Its AtheNA signal (relative luminescence units) is 2.

**Q.** And the AtheNA signal (relative luminescence units) (SSA [13])?
**A.** The AtheNA signal (relative luminescence units) was 12.

**Q.** And the AtheNA signal (relative luminescence units) (Histones [14])?
**A.** Its AtheNA signal (relative luminescence units) is 9.

**Q.** What about the AtheNA signal (relative luminescence units) (SSB [15]) of the same substance?
**A.** The AtheNA signal (relative luminescence units) was 4.

**Q.** And the AtheNA signal (relative luminescence units) (RNP (ribonucleoprotein) [16])?
**A.** The AtheNA signal (relative luminescence units) was 5.

**Q.** And the AtheNA signal (relative luminescence units) (Centromere B [17])?
**A.** Its AtheNA signal (relative luminescence units) is 5.

**Q.** What about the AtheNA signal (relative luminescence units) (Jo-1 [18]) of the same substance?
**A.** Its AtheNA signal (relative luminescence units) is 4.

**Q.** And the AtheNA signal (relative luminescence units) (Sm (Smith antigen) [19])?
**A.** The AtheNA signal (relative luminescence units) was 6.

**Q.** And the AtheNA signal (relative luminescence units) (Scl-70 [20])?
**A.** The AtheNA signal (relative luminescence units) was 2.

**Q.** What about the AtheNA signal (relative luminescence units) (SSA [21]) of the same substance?
**A.** Its AtheNA signal (relative luminescence units) is 11.

**Q.** And the AtheNA signal (relative luminescence units) (Histones [22])?
**A.** The AtheNA signal (relative luminescence units) was 4.

**Q.** What about the AtheNA signal (relative luminescence units) (SSB [23]) of the same substance?
**A.** The AtheNA signal (relative luminescence units) was 5.

**Q.** And the AtheNA signal (relative luminescence units) (RNP (ribonucleoprotein) [24])?
**A.** Its AtheNA signal (relative luminescence units) is 3.

**Q.** What about the LogAUC (CH505.M21D8gp120/293F) of the same substance?
**A.** Its LogAUC is 0.

**Q.** And the LogAUC (CH505w020.14D8gp120)?
**A.** The LogAUC was 0.

**Q.** And the LogAUC (CH505.M7D8gp120/293F)?
**A.** The LogAUC was 0.

**Q.** And the LogAUC [25]?
**A.** Its LogAUC is 0.

**Q.** What about the LogAUC (CH505.M5D8gp120293F) of the same substance?
**A.** Its LogAUC is 1.36.

**Q.** What about the LogAUC (CH505.M10D8gp120) of the same substance?
**A.** Its LogAUC is 0.12.

**Q.** What about the LogAUC (CH505.w30.12D8gp120) of the same substance?
**A.** Its LogAUC is 0.

**Q.** What about the LogAUC (CH505.M9D8gp120/293F) of the same substance?
**A.** The LogAUC was 0.

**Q.** What about the LogAUC (CH505.M11D8gp120/293F) of the same substance?
**A.** Its LogAUC is 0.

**Q.** What about the LogAUC [26] of the same substance?
**A.** The LogAUC was 0.

**Q.** And the LogAUC (CH505w136.B18D8gp120)?
**A.** The LogAUC was 0.

**Q.** And the LogAUC (CH0505_CON D7gp120/293i)?
**A.** Its LogAUC is 0.

**Q.** What about the LogAUC (CH505.M19D8gp120) of the same substance?
**A.** The LogAUC was 0.

**Q.** And the LogAUC (CH505w030.20D8gp120/293F)?
**A.** Its LogAUC is 0.24.

**Q.** What about the LogAUC [27] of the same substance?
**A.** Its LogAUC is 0.

**Q.** And the Kd [28]?
**A.** Its Kd is 30.6 µM.

**Q.** What about the koff [28] of the same substance?
**A.** The koff was 0.0881 s⁻¹.

**Q.** What about the kon [28] of the same substance?
**A.** Its kon is 2900 M⁻¹ s⁻¹.

**Q.** What does the source list for CH235 IA3 (antibody)?
**A.** AtheNA signal (relative luminescence units) (Centromere B [1]): 15; AtheNA signal (relative luminescence units) (Jo-1 [2]): 3; AtheNA signal (relative luminescence units) (Sm (Smith antigen) [3]): 12; AtheNA signal (relative luminescence units) (Scl-70 [4]): 3; AtheNA signal (relative luminescence units) (SSA [5]): 12; AtheNA signal (relative luminescence units) (Histones [6]): 7; AtheNA signal (relative luminescence units) (SSB [7]): 6; AtheNA signal (relative luminescence units) (RNP (ribonucleoprotein) [8]): 5; AtheNA signal (relative luminescence units) (Centromere B [9]): 27; AtheNA signal (relative luminescence units) (Jo-1 [10]): 8; AtheNA signal (relative luminescence units) (Sm (Smith antigen) [11]): 13; AtheNA signal (relative luminescence units) (Scl-70 [12]): 4; AtheNA signal (relative luminescence units) (SSA [13]): 10; AtheNA signal (relative luminescence units) (Histones [14]): 12; AtheNA signal (relative luminescence units) (SSB [15]): 9; AtheNA signal (relative luminescence units) (RNP (ribonucleoprotein) [16]): 7; AtheNA signal (relative luminescence units) (Centromere B [17]): 9; AtheNA signal (relative luminescence units) (Jo-1 [18]): 2; AtheNA signal (relative luminescence units) (Sm (Smith antigen) [19]): 7; AtheNA signal (relative luminescence units) (Scl-70 [20]): 2; AtheNA signal (relative luminescence units) (SSA [21]): 12; AtheNA signal (relative luminescence units) (Histones [22]): 5; AtheNA signal (relative luminescence units) (SSB [23]): 3; AtheNA signal (relative luminescence units) (RNP (ribonucleoprotein) [24]): 4; LogAUC (CH505.M21D8gp120/293F): 0; LogAUC (CH505w020.14D8gp120): 2.72; LogAUC (CH505.M7D8gp120/293F): 0; LogAUC [25]: 2.96; LogAUC (CH505.M5D8gp120293F): 7.01; LogAUC (CH505.M10D8gp120): 0.08; LogAUC (CH505.w30.12D8gp120): 0; LogAUC (CH505.M9D8gp120/293F): 0; LogAUC (CH505.M11D8gp120/293F): 0; LogAUC [26]: 0; LogAUC (CH505w136.B18D8gp120): 0; LogAUC (CH0505_CON D7gp120/293i): 5.09; LogAUC (CH505.M19D8gp120): 0.11; LogAUC (CH505w030.20D8gp120/293F): 1.16; LogAUC [27]: 0
